The data set in a line: label from the status in PepcDB records.
For the sequence “MDLTISNELTGEIYGPIEVSEDMALTDLIALLQADCGFDKTKHDLYYNMDILDSNRTQSLKELGLKTDDLLLIRGKISNSIQTDAATLSDEAFIEQFRQELLNNQMLRSQLILQIPGLNDLVNDPLLFRERLGPLILQRRYGGYNTAMNPFGIPQDEYTRLMANPDDPDNKKRIAELLDQQAIDEQLRNAIEYTPEMFTQVPMLYINIEINNYPVKAFVDTGAQTTIMSTRLAKKTGLSRMIDKRFIGEARGVGTGKIIGRIHQAQVKIETQYIPCSFTVLDTDIDVLIGLDMLKRHLACVDLKENVLRIAEVETSFLSEAEIPKSFQEGLPAPTSVTTSSDKPLTPTKTSSTLPPQPGAVPALAPRTGMGPTPTGRSTAGATTATGRTFPEQTIKQLMDLGFPRDAVVKALKQTNGNAEFAASLLFQ”, the protein production entry is “failed”. To “MMSYDAETGIAKVKCQSQSTCGACSARETCGTESLSELNGKRGEHIFTLETITPLRTDQMVEIGLEEKSMLFSALLMYIVQLFTLLVATLLSSYISENELIRAILIFMLTALSFVMVKRYTRKLGQQTEFQSVLLRVLF” belongs “failed”; to “ISLKYTAARLHEKGVLLEIEDLQVNQFKNVIFEISPTEEVGDFEVKAKFMGVQMETFMLHYQDLLQLQYEGVAVMKLFDRAKVNVNLLIFLLNKKFYGK”, “not failed”; to “MTAGWCCRTVRAALFAAVCVLLAALGHVMMSGTAVPWWAMTVAALVTGGTGWCLAGRERGLALIVSVVVVAQGALHSAFSVAQSAAHSAGSVGADSMPKGSMGSDMSSVHMDSVHMDSMDMGNMGAGHLAHLGHDMGGGSSFGMLAAHSAAALLCGLWLAYGERAAFRILRALAGRLAAPLRLLLALPTPAHRPRIRVRRGSSDRTPRRLLLVHAITSRGPPVGTAVI”, “failed”. As to “MNIMLFHSTYGLRPAVRAAADRLRAAGHEVWTPDLLEGRTFETVEEGMAFCDGIGKDELLKRAVLAAAPYSERGLVYAGFSLGASIAQTLALGDEKARGLLLLHGTSDIAESASVDELPVQLHVAEPDAFETDDWLGAWYLQLRRAGADVEVYRYAGAGHLYTDPDLPDYDAEAAEATWKVALGFLDSL”, the protein production entry is reported as “not failed”. To “MSLYKLYSMQRSGNSYKVRLALALLDAPYRAVEVDILRGESRTPDFLAKNPSGQVPLLETAPGRYLAESNAILWYLAVGTSLAPDTRMDRAEALQWMFFEQHALEPNIGSAYFWLCLVKGGRDLQTHALEDWLERGYAALQVMENHLKTNDYFAAGQLTIADIALYGYTHVADQCDFDLSTFPAVNAWLRRVEQTPGFITMDWTPETIAADPTSFAAEGHHHHHH” belongs “not failed”; to “MVLWHKKDRKLGKHLRSVLSVSNNSPLSPAAFSGFKAVIKGIEKERIAGVGKTEGIKNEKTAGVGKTEGIEKERIAGVGKTEGIENTEGTEKAGEIKNNEKIKKAEETENILEIEKTFRNKKKQGVSKGDVDKENSTAFLYNTEAKKLTFHGNIYEILPLFLNVRNLYASLPFFEELQACAERLEKDPQDATALFQKAVLMYKARRFETALQLTAKVLKIIPDDHRVWYNRGVILSEMGRLEEAIAAYDRTIELEPAFEIAWDNKGVVLARLGRFEEALEIYDKILQKFPEYAEAWAGKGSIFLALDREEEALEAYSSALRIRPEYLEALTSTGSLLSRLGRYEESLKIYDKALQLVPKDPRLLAAKGFVLSEMGKQEEALENCNRALELQPGFVPALEIKVRILSEIGRQKNKTSQ”, “failed”; to “NLMKRCTRGFRKLGKCTTLEEEKCKTLYPRGQCTCSDSKMNTHSCDCKSC”, “not failed”. To “MNHPDLAGKVAIVTGAGAGIGLAVARRLADEGCHVLCADIDGDAADAAATKIGCGAAACRVDVSDEQQIIAMVDACVAAFGGVDKLVANAGVVHLASLIDTTVEDFDRVIAINLRGAWLCTKHAAPRMIERGGGAIVNLSSLAGQVAVGGTGAYGMSKAGIIQLSRITAAELRSSGIRSNTLLPAFVDTPMQQTAMAMFDGALGAGGARSMIARLQGRMAAPEEMAGIVVFLLSDDASMITGTTQIADGGTIAALW” belongs “not failed”; to “DGVRLLEELGAINAEAKDAKKRLTSIGRQLARLPIDPRLARMVLEAPKYGALKEVMIIAAALSIQDPRERPSDKQQSSDDKHRRFFHEESDFLTFV”, “failed”; to “MSVVSPDPAPVPHDPQRRALLRWLVGGGALAGGLGVSAVAQGYRFGVTHEQWNLVGLTRPVRLALLTDLHYGLYIGAGSVRRWVDATLAECPDLILLGGDLVDSHFDAAARPQQTAALLAELGRLRAPLGVYAVWGNHDYGSFGRSISQSPEASRADWAARRDALRAGLAGQGVTVLLNEGRSLRDDLWLGGVDDLRMGEADSVAALRGSGTRATVLLAHNPDVLLRLRSAPGLVLSGHTHGGQVRLPLLGALKVPADPRFTMGWVRGPQGIPAYVSRGLGMSGLPVRNLCEPEITLLTLLPPGALEHHHHHH”, “failed”. Take “MATNIPCEVVAFSDRKLKPLIYVYSFPGLTRRTKLKGNILLDYTLLSFSYCGTYLASYSSLPEFELALWNWESSIILCKKSQPGMDVNQMSFNPMNWRQLCLSSPSTVSVWTIERSNQEHCFRARSVKLPLEDGSFFNETDVVFPQSLPKDLIYGPVLPLSAIAGLVGKEAETFRPKDDLYPLLHPTMHCWTPTSDLYIGCEEGHLLMINGDTLQVTVLNKIEEESPLEDRRNFISPVTLVYQKEGVLASGIDGFVYSFIIKDRSYMIEDFLEIERPVEHMTFSPNYTVLLIQTDKGSVYIYTFGKEPTLNKVLDACDGKFQAIDFITPGTQYFMTLTYSGEICVWWLEDCACVSKIYLNTLATVLACCPSSLSAAVGTEDGSVYFISVYDKESPQVVHKAFLSESSVQHVV”: the protein production entry is “failed”. The same measure for “MNKMIILLVIAIIFLHMCLIWLWYRYTNNPSVVDVGWASGLTLAGLIYLNNQEFSLRSLLLVLALLTWGIRLGGYLWWTRIRLKKIDKRYLALSNDWKLAKPLGFFLNFQLQGVLICLVSIPWYFSSSETQTALNLLDGLALIIFLTALILETVADNQLQDFKKNYPGKVCNQKLWRYCRHPNYFYEWLVWCSFTLFALSAPYGWIAIISPLTLYLIMTKITAPMTEQGSIESRGNLYIEYQKVTPMFFPKWLKNNSTPRK”: “failed”; for “MNLDTPLADGLERAKRFEQGLQQVVLGQERPIRLLTLAVFARGHALLEGGVGVGKTTLLRAVARGIGGDYERIEGTIDLMPNDLVYYTYLDEQGRPGVAPGPLLKHGEQLSIFFFNEINRARPQVHSLLLRVMAERSVSAFNREYRFPYLQVFADRNRVEKEETFELPAAARDRFMLEIAIEPPADPAHIDQILFDPRFYDPDRLVASAPADTLSFRELNGIAEALQGGIHVSARLRSYVQDLWRATRRPEDFGIALHEADSGDMIEAGSSPRGMSYLVRLARVQAWLSGRDRVEPEDVQYVFAPAVGHRIFLKPVYEYRRAELIPELVGKLIRRIAAPLEHHHHHH”: “failed”. To “MKNVLILGAGGQIARHVINQLADKQTIKQTLFARQPAKIHKPYPTNSQIIMGDVLNHAALKQAMQGQDIVYANLTGEDLDIQANSVIAAMKACDVKRLIFVLSLGIYDEVPGKFVEWNNAVIGEPLKPFRRAADAIEASGLEYTILRPAWLTDEDIIDYELTSRNEPFKGTIVSRKSVAALITDIIDKPEKHIGENIGINQPGTDGDKPFFM” belongs “not failed”; to “MNNPITAVWEITMGCNMRCKHCGSSCENALEGELTTEEALKLCDELGELGFKWITLSGGEPTTRKDWHLIAKRLNENGIIPNMITNGWLMNEEIADKAVEAGINTVAISVDGLEETHDFIRKKGSFQRIMRAFDILRTRNIFYSAITTINNINIKELPRLRDILIEKGVRGWQLQLGLPMGNMAKNNELVAQPYHIDEVIEFSYKTVKEGYNIDVQLADCIGYFNLKEIEVRKNSYGGGRDGYNWTGCGAGKYSLGILHNGDILGCTSVRDRSFIEGNIRQTPIKEIWMNPDSFSWNRKMTKDKLSGLCKKCYFGERCLGGCSNTRLTMEGSVYSENRYCSYNVAISTAREQLDRIEDVDVMLSKAKKFADNGNFQLAEILLSRAIEKGCRDIGVFEFYGYISFMLGNYLDAKKANEEALKINPDSAYANKGMGLSLGRLGELEKGIEYLRKAIALSDENFTDPYYDLAVLLYENGRKEEALEVLEEGRKKYKSFIDTSKDLYDILTNAS”, “failed”.

With “MSRENNVQSTRAERKTLILALVAGMCSDALLSWLTMSSVPFSLFALIALVLSAQMLYQEYLAHPVAEEVPLVGLACFFVGAFGHSAFIKAQYPQEGSNFFSIVIVLLLIFWIGRKLGYIGKPR”, the protein production entry is given as “failed”.

Turning to “MKVYVVVPTYNESDNIVALMEKILAQRDNIHVLVVDDNSPDGTGEIAARMSSDNPRIHVLRRSGKMGLGSAYCDGFRVALRDGADFIIEMDADFSHDPATIPALLAATDKYDVVVGSRYLNGVSVVNWPIRRLMLSYFASVYTRFVTGLALRDCTSGFKCFRRRVIESVDLDTIRSDGYSFQIEMNYRCVERGFRVGEIPIIFIDRHAGSSKMSKKIVREAVLMVWKLKLGSLVKKLTRRGDRHAALEHHHHHH”, the protein production result was “not failed”. Consider “MNTKPVLVILGPTASGKTELAFRIARQTGGEIISADSRQIYRGMDIGTAKPPRWMLDEVKHHFIDKKEIGEPFSAGDFAEQAAEKIRELHQRGITPVVAGGSTLYLEGLLKGFAELPPADPEIRAQLTRELERHGAEALYRRLEALDPEQAKTLDPTKTQRLIRSLEIIEISGTTVTALQSKTPGPPTGINFTVIGLDLPRELLYERINQRTSAMIQAGLEAEARYLFDKFRDEWRSKNLNALATVGYRELFEHFEELHDLDTAVSLIAQHTRNYAKRQLTFFRNRLDVEWVKAPLDEAEIEALVEFFSTRQDDSVPHSPIAIAKKQNA”, for which the protein production result was “failed”. To “MTNVISYNNDKGLLAYIQFLADRALKPSNGNTDPVFDFEDALDQTEMAQLAVDELKKIPEVNTLFAERWLPAPFNLDDLAKLPEGTLGHVYAIEMKARGFDPYFYKKVPVVDDISYLKMLWRSTHDIYHVVAGFDTDGIGEIGLQAFVLAQTPIPISVMLVSFGMVMTSLYQPAKFQDLMAEIARGYSLGSHTPRKLIAQKWDQFWDVPVIEIRECLGMNTVKQRERA” belongs “failed”. To “NQLSGLHSMEEQLAKKLQIKKCLVVQGDSDDTPWVREEMGRVAVEQLDMALTEKRNIVAVMGGSTMATVAEMMTTDFAKGRELLFVPGRGGIGEDLDNQANTICDKMATKTNTKHRVLYVPEQLGEEAYRSLLKEPAIQEGLRLVQSANAIILGIGDALAMAKRRHTGEDVLEKIIRRKAVGEAFGYYFDEQGEVVHKVPTFGLQFEDLAQIPHIIAVAGGTSKAKAIKSYMKSAPKNTILITDEGAAKSLLK” belongs “not failed”; to “MAHGVNIYNVYSISIIALLASSFLLYAQEAKGLENAMLFLSIIFPYAFYLNGHILLYLVLPAYLIVTSSVTFHYYIYELIPTLIYYFGILPKFINYNVRLMTILWES”, “failed”; to “MFEENEKEQLLYYERNKESEKCQKVWESIICKGLGYSKEEIRRDVERSRREKERLLSILYGSVFTGPKYLLYSKKWRGKTLNEIINEDREKNLNKNNFKNMDLDSTYFCELSFGYMDTAEENDDKNKKEITKQMEKKNDKVPNIRKGGNTNNSQNKRKTYHGEKNANTTNKDLDEFYSKLNYLEKRSYKNRYRNDNNNKKNNNNNNNNNNSNSNNNYYYYYSNGRSSYTNELSNEKNKYNEENSDEGNVIKYKYLPTGVFYSRVSKSFIANWIDDKTKKQVKIPYKISEYGIEKCMILAILSRNLRLSNLSNVLKYYDELTDSQKEQMLHAIRTTQKSEKLFEDIINRNGNKKNENNIINNYSNIHNDTSINNNNNNNNNNNNNIGNTIGTQHKNKNKQNANDQKNIPMKKKLIEKKKVKQSYVNEEKLPTGVYFYQGSYVANWWETNQKKQFKVPFKISEYGIARAKNLAIISRLIRSSSIPDINLILTQMENDHNLSDMDYTAISELAYKYIENMAKKE”, “failed”.

The values above are taken from a protein production outcome set (Wang et al. 2014).
